Test results from the supplement of paper PMC9170038.

Tested on: K4 kissing-loop RNA reporter
Assay: apparent KD of K4 kissing-loop reporter; higher = weaker reporter binding
Settings: Eterna round: R107
Procedure: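 RNA-MaP round R107: designed RNA switches with theophylline, tryptophan, arginine or FMN aptamers are transcribed on-chip within common flanks. They are titrated with a labelled K4 kissing-loop RNA reporter in RNA-MaP buffer (100 mM Tris pH 7.5, 80 mM KCl, 4 mM MgCl2), without ligand or with the indicated ligand. Median apparent KD per design.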

[1] = input ligand: theophylline 20 uM
[2] = input ligand: tryptophan 2.4 mM
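Further: bound reporter read as fluorescence of individual clusters on recovered sequencing chips by microscopy, with normalized cluster intensities fitted with a binding model.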

| Sequence | apparent KD of K4 kissing-loop reporter (input ligand: FMN 200 uM) | apparent KD of K4 kissing-loop reporter (input ligand: arginine 13.2 mM) | apparent KD of K4 kissing-loop reporter (input ligand: none) | apparent KD of K4 kissing-loop reporter [1] | apparent KD of K4 kissing-loop reporter [2] |
| --- | --- | --- | --- | --- | --- |
| CACGUUUACCAAGGAUAUGGUCUGCCGCGGAACCGUUCAAGUGAUGUUUGAUUCGAGUAUUAAUCUCCAGAAGGUGGUAGUACAG [theeternabot_exclusion_KL_FMN_B_6] | 247 nM | 353 nM | 417 nM | 476 nM | 342 nM |
| CAGAACUUGUAUAUAGGGUAUAUAAGAGAUACCAGUCAAAUUAAAGACCCUUGGCAGCUCAGGCGAGUGAUGUUCGCAGGCUAAC [Exclusion Theophylline A GF 17] | 112 nM | 111 nM | 113 nM | 133 nM | 91.1 nM |
| CAGCAUCAGGUUCAAACUGCAUGUACUGAUACCAGUCUUAAGAUCGACCCUUGGCAGCAGCUCCCGAGUGAUGUUCGUAGCGAGC [theeternabot_exclusion_KL_Theo_A_41] | 362 nM | 339 nM | 356 nM | 401 nM | 336 nM |
| CAGCGGAGUGAUGUUCUGCUUACUGCGGAUACCAGCUUCGCCAGAGGCCCUUGGCAGCCGGGCGGCUCAGUGAUGUUGGGUUGCU [Same State Theophylline A GF 15] | 536 nM | 559 nM | 876 nM | 920 nM | 664 nM |
| CAGUUCCGUAGUGAUGUUACGAUCUCUGAUACCAGACAACUCUAAGUCCCUUGGCAGCAGUCAUUUUGCUUAAUAUUUACUCAAA [#08 K4 Theophylline A Exclusion] | 126 nM | 139 nM | 136 nM | 170 nM | 116 nM |
| CAUACGCAUGGAGGAUAUGAGAAUUCUCAUGUCAUUUAAUAUUCUCAGUGAUGUUGAGGAUGUGGCUCAGAAGGCCAUGUGUAUG [Ex FMN B 21] | 205 nM | 325 nM | 423 nM | 366 nM | 379 nM |
| CAUUCUAUAUGCAGUGAUGUUGCAACUGAUACCAGUAUCGAAAGAUACCCUUGGCAGCGGAAAACCGCUACGUAAUUUAAGAAUG [Ex Theophylline A K4 22] | 375 nM | 445 nM | 489 nM | 523 nM | 327 nM |
| CCACAAUAUGGAAGGAGCGCCAGUGAUGUUGGUGCUUGCUUUAGGUAAGACCGGCCUAUUUGGCAGGUAGGUCGCCAUAUUCAAC [Ageat] | 103 nM | 89.5 nM | 97.7 nM | 89 nM | 97.2 nM |
| CCAGAAUGAUGAGGAUGAUAAAUUACUGAAGGAGCGCAUAUAGUUGCAGGUAGGUCGCGGUGAAUAAGUAUAGUGAUGUUAUACC [SSArgA.Ab] | 595 nM | 327 nM | 314 nM | 322 nM | 341 nM |
| CCAGGAUGAUGAGGAUGAUAAAUUACUGAAGGAGCGCAUAUAGUUGCAGGUAGGUCGCGGUGAAUAAGUAUAGUGAUGUUAUACC [SSArgA.Aa] | 379 nM | 263 nM | 309 nM | 360 nM | 301 nM |
| CCCGCGGCGGGAAACCGUCGCGGGAAGGAAGGAGCGGCGAAGAAGCCAGGUAGGUCGCCUAUUGACAGUGAUGUUGUUAUAUAGA [#11] | 226 nM | 263 nM | 160 nM | 292 nM | 179 nM |
| CCCGUUGCGGCGGCCGCCACUGACUUAUUGAUUAGGUUGCCAGUGAUGUUGGCCACCGGUCAAUACAGGACCGGGCCAUAGCGGG [Ceisreatte] | 157 nM | 124 nM | 128 nM | 134 nM | 99.1 nM |
| CCCUAUAUAUGCAGUGAUGUUGCAACUGAUACCAGUAUCGAAAGAUACCCUUGGCAGCGGAAAACCGCUACGUAAUUUAAUAGGG [Ex Theophylline A K4 21] | 384 nM | 422 nM | 419 nM | 461 nM | 265 nM |
| CCGGCCCAGCCGGAUACCAGUGCGCCGCAGGGAACGGCGGGCCCAGAGUGAUGUUCGGGACACCCUUGGCAGCCGCCUGGGUCGC [#2 Same State - Theophylline B Attempt #27 (HarryS)] | 234 nM | 197 nM | 309 nM | 314 nM | 297 nM |
| CCGGGCGGCUGAAGGAGCGGGCGGGCCCGAGUGAUGUUCGGGUGGGCCGUGAGGCCCGGAGCCCAGGUAGGUCGCGGUUCCGUCC [#2 Same State - Arginine B Attempt #18 (HarryS)] | 201 nM | 139 nM | 167 nM | 196 nM | 140 nM |
| CCUCACGUAGGACUAGUGAUGUUAGACUACCGAGGACCGGUACGGCCGCCACUCGUCGUACAAGAUAACCAUCUGCCAGUAUACA | 122 nM | 103 nM | 117 nM | 107 nM | 168 nM |

| Sequence | apparent KD of K4 kissing-loop reporter (input ligand: FMN 200 uM) | apparent KD of K4 kissing-loop reporter (input ligand: arginine 13.2 mM) | apparent KD of K4 kissing-loop reporter (input ligand: none) | apparent KD of K4 kissing-loop reporter [1] | apparent KD of K4 kissing-loop reporter [2] |
| --- | --- | --- | --- | --- | --- |
| CCUUUAGGCUCGGCCGCCACUCCAGUGAUGUUGGAGGUGCGUACAGAGCUAGAAAGCGUUAUCAGGAGGACCGGGAGUUUUAACG [Leorte] | 98.3 nM | 107 nM | 103 nM | 101 nM | 110 nM |
| CGACUAGUCUUGCAACCCUAGUCGAUAUGCUAGGAUAUCAGGAAACUGAGAAGGAGUUUACUUGCAGUGAUGUUGCAAGAAUAAU [KL-SSFMN-A10] | 135 nM | 153 nM | 133 nM | 172 nM | 129 nM |
| CGAGCUUCCUGGGAUACCAGUCGGAGUCUCAGAGCUCGGAGUGAUGUUCUGGGAUGUUUCGGCCCUUGGCAGCUCUGGGACUCCU [#2 Exclusion - Theophylline B Attempt #20 (HarryS)] | 1000 nM | 576 nM | 767 nM | 883 nM | 797 nM |
| CGAGUCCUGAGGAGUGAUGUUCCUCGGCCACGAGGACCGGUACGGCCGCCACUCGUUACUCGGGCUUAGUGGCUAGCACUAAGCU [Tirete] | 200 nM | 249 nM | 203 nM | 238 nM | 118 nM |
| CGAUACGGAAAUACGUGUCUCUAUUCAGAAGGAGCGUGGUAGUACACAGGUAGGUCGCUGAAUUUUAAACUAGUGAUGUUAGUCU [JR_SSArginiA_Sub005] | 317 nM | 281 nM | 331 nM | 292 nM | 259 nM |
| CGAUAGGGAAGUCGAUUGCUCACUGGUAAACGAGGACCGGUACGGCCGCCACUCGGGUCCAGUGAUGUUGGACUUUGUGGCGGGC [Edladian] | 117 nM | 99.5 nM | 104 nM | 99.5 nM | 109 nM |
| CGCAAGCAGCCAGUGAUGUUGGCCGCCUUGCGAGGACCGGUACGGCCGCCACUCGAAGGCGGCUACUAGUAAACCGCCUAACGGA [KL-XTryp-A17] | 105 nM | 91.1 nM | 95.6 nM | 81.2 nM | 184 nM |
| CGCAAUAUUACGGAGUGAUGUUUCGUAGUCCGAGGACCGGUACGGCCGCCACUCGCUGGCGUUGGCCCAUAGACCGACGGAAUCG [theeternabot_sameState_KL_Trp_A_39] | 246 nM | 252 nM | 257 nM | 236 nM | 238 nM |
| CGCAGGAUGGAAGGAUAUGGGAGUUGACGUCGCCGAGCUAACCUUCUGCACGGAGUGAUGUUUAGACCAGAAGGUCCUCGGAGCA [theeternabot_exclusion_KL_FMN_B_17] | 1210 nM | 997 nM | 1610 nM | 1150 nM | 1180 nM |
| CGCAGUGAUGUUGCGAGUAGCUACAGGGAAGGAGCGUGCUAGAGCACAGGUAGGUCGCCCACGCAGUGAUGUUGUGUUAAAGGGU [Exclusion Arginine A GF 12] | 141 nM | 116 nM | 123 nM | 149 nM | 117 nM |
| CGCCAGUGAUGUUGGUGCAGCUACCGGGAAGGAGCGCCCAUAAGGGCAGGUAGGUCGCCCGGGCAGUGAUGUUGCCUCAUGCCGC [Exclusion Arginine A GF 22] | 243 nM | 236 nM | 273 nM | 234 nM | 238 nM |
| CGCCGCAAGGCGAGCGCUCCCACUCCGGAAGGAGCGCCCGGAAGGGCAGGUAGGUCGCCGGAGUGAUGUUCCGGUGGAGGGCUCG [#2 Exclusion - Arginine A Attempt #13 (Inspired by Omei)] | 358 nM | 248 nM | 334 nM | 491 nM | 416 nM |
| CGCCGCAAGGCGGGCCGGCCCACUCCGGAAGGAGCGCCCGCAAGGGCAGGUAGGUCGCCGGAGUGAUGUUCCGGUGGCCGGCCCG [#2 Exclusion - Arginine A Attempt #3 (Inspired by Omei)] | 433 nM | 244 nM | 376 nM | 592 nM | 354 nM |
| CGCCGUAAGGCGGUCGCUCCCACUCCGGAAGGAGCGCCCGGAAGGGCAGGUAGGUCGCCGGAGUGAUGUUCCGGUGGAGGGACCG [#2 Exclusion - Arginine A Attempt #9 (Inspired by Omei)] | 587 nM | 295 nM | 365 nM | 270 nM | 367 nM |
| CGCGCGCGCGCGCGCGCGCGCGCGCGAAGUGAGGAUAUUUAGGGAGAAAGAAGGCACUAUAAAAUAUAGUGAUGUUAUAUAAGGG [SSFMNA.B] | 920 nM | 499 nM | 720 nM | 203 nM | 496 nM |
